Here are results for five molecules from patent publication US20170152313A1 (Novartis, published 2017).

Assay [1] has as its target T1, Human LOX-1 full-length protein (human, UniProt P78380 1-273).
T1 construct: also called huLOX-1/HEK293 cells; human LOX-1 transfected HEK293 cells
The experiment in a line: flow cytometry, biotinylated antibody on primary human neutrophils, PE-streptavidin. As for the experimental part: The resulting cell suspension was carefully transferred to a 50 mL conical tube containing 10 mL Ficoll-Paque, layering the cell suspension on top of the Ficoll-Paque, and the tube was then centrifuged at 1400 rpm (400×g) for 30 minutes at room temperature. The top layer was the discarded. To the resulting cell pellet, 10 mL 0.2% ice-cold sodium chloride was added, and the mixture was incubated for exactly 30 seconds to lyse red blood cells; 10 mL of ice-cold 1.6% sodium chloride was added to restore isotonicity. The cell suspension was then centrifuged at 1200 rpm ([…]) for 5 minutes. The supernantant was then discarded, and the red blood cell lysis procedure repeated once more. The resulting cell pellet was resuspended in FACS buffer (2 mM EDTA, 1% BSA, and 0.2% sodium azide in PBS) at a cell density of 2×10⁶ cells/mL.
The cell suspension containing freshly isolated human neutrophils was transferred (50 ul/well) to wells of a 96-well V-bottom plate (1×10⁵ cells/well) (Costar, catalog number 3894). Blocking buffer (4% normal rabbit serum diluted in FACS buffer (2 mM EDTA, 1% BSA, and 0.2% sodium azide in PBS) (50 ul/well) was added and the plate was incubated on ice for 30 minutes. Biotinylated LOX-1 antibody (10 μl) in FACS buffer was then added to the wells at final concentrations ranging from 1 ng/ml to 5 ug/mL, and the plate was incubated on ice for 30 minutes. The plate was then centrifuged at 1200 rpm (250-300×g) for 3 minutes and supernatant was discarded. The cells were then washed twice with 0.2 mL FACS buffer, and then 0.1 mL of PE-streptavidin (BD Pharmingen catalog number 554061) diluted at 1:250 in FACS buffer was added, and the plate incubated on ice for 30 minutes. The plate was then centrifuged again, supernatant discarded, and the cells washed twice with 0.2 mL FACS buffer. Cells were then resuspended in 0.1 mL of fixing buffer (FACS buffer with 2% paraformaldehyde) and analyzed using a FACS instrument. To determine an EC50 value for neutrophil binding by LOX-1 antibodies, the LOX-1 staining intensity determined by FACS was plotted vs. the concentration of the antibody as shown in FIG. 5 and Table 3.
(In flow cytometry, cells or beads pass a laser one at a time.)

The target of assay [2] is T1, Human LOX-1 full-length protein. The experiment in a line: cell-based or functional assay.
Assay [3] deals with T2, APP-Avi-soluble cynomolgus monkey LOX-1 (61-273) (cynomolgus monkey, biotinylated at the Avi tag when immobilised in the SET assay).
T2 construct: Expressed and purified in the same way as the human protein; also called cynomolgus monkey soluble LOX-1; Cynomolgus Monkey Soluble APP-Avi-LOX-1
The experiment in a line: SPR Biacore T200, antibody captured by anti-human IgG, cynomolgus soluble LOX-1 as analyte, 1:1 model. As for the experimental part:
Surface plasmon resonance measurements quantifying the interaction of humanized LOX-1 antibodies with human or cynomolgus monkey LOX-1 were done with the optical biosensor BIAcore T200 on a CM5 chip. Goat-anti-hlgG (gamma) (Invitrogen H10500) was coated at 3,000 RU on the CM5 chip in acetate buffer, pH 4.0. The running buffer used was PBS, pH 7.4 (filtered, degassed). Test antibodies were loaded into individual flow cells at a concentration of 1 ug/mL at a flow rate of 10 uL/min. The target number of IgG capture was between 20-30 RU, in HBS-EP buffer (0.01M HEPES, pH 7.4, 0.15M NaCl, 3 mM EDTA, 0.05% P20). Human or cynomolgus monkey soluble LOX-1 was diluted to a concentration of 33 nM in HBS-EP buffer, then diluted serially (1:3) down to a concentration of 0.137 nM. This represents six different concentrations of human or cynomolgus monkey LOX-1. The antigen was introduced into individual flow cells at a flow rate of 30 uL/min. Parameters for association time were set at 700 seconds and dissociation time was set at 5,400 seconds. Data were analyzed using buffer blanks, reference blank, and a 1:1 binding model for curve fitting in order to determine association and dissociation rate constants (ka and kd) and equilibrium binding constants (KD) (see results for FF1, FF3, FF4, FF5, and FF6 in Tables 7-8).
(SPR reads the build-up and loss of mass on a sensor chip optically.)

The target of assay [4] is T1, Human LOX-1 full-length protein. The experiment in a line: flow cytometry, inhibition of dil-OxLDL binding to huLOX-1/HEK293 cells. As for the experimental part:
The huLOX-1/HEK293 cells were resuspended at 1×10⁶ cells/mL and seeded 50 μL per well into a 96-well V-bottom plate (5×10⁴ cells per well). LOX-1 or irrelevant control antibodies in assay medium (DMEM+10% FBS) were then added to the cells. Typical final antibody concentrations ranged from 0.006 μg/mL to 20 μg/mL. The cells were incubated at 37° C. for 1 hour, then washed twice with warm HBSS. Dil-oxLDL (human dil-labeled “High Oxidized” LDL, Kalen Biomedical, catalog number 770262-9; Dil is 1,1′-dioctadecyl-3,3,3′,3′-tetramethylindocarbocyanine perchlorate) in 50 ul assay medium was then added to a final concentration 30 to 100 μg/mL. The cells were then incubated at 37° C. for 2 hours, and then washed twice with FACS buffer (2% FBS in PBS). Cells were then analyzed for intensity of Di-I fluorescence by flow cytometry, as depicted in FIG. 2 and Table 3.

The target in assay [5] is Human Soluble His9-LOX-1 from R&D Systems (human, UniProt P78380 61-273). The experiment in a line: solution equilibrium titration (SET), MSD read-out. As for the experimental part:
(§1) For humanized LOX-1 antibodies FF1, FF3, FF4, FF5, and FF6, the following solution equilibrium titration (SET) assay protocol was used to determine KD values. The assays were performed in a 96-well polypropylene plate (Thermo Scientific, Catalog no. AB-1127) as follows. A constant concentration of LOX-1 antibody (1 pM) was mixed with different concentrations of non-biotinylated human or cynomolgus monkey LOX-1 protein (3-fold serial dilution ranging from 1 nM to 0.017 pM) in SET buffer (PBS, pH 7.4 without CaCl₂ or MgCl₂, Gibco, catalog no. P7949; 0.5% w/v bovine serum albumin, fatty acid free, Calbiochem, catalog no. 26575; and 0.02% v/v Tween-20, Sigma, catalog no. P7949). The final reaction volume was […]. The plate was sealed using an adhesive film (WVR, catalog no. 60941-062) and incubated at 22° C. for 14 hours with constant shaking (300 rpm).
(§2) During the same period, a 384-well streptavidin-coated MSD plate (Meso Scale Discovery, catalog no. L21SA) was blocked by incubating the plate with 50 μL blocking buffer (PBS, pH 7.4, 5% w/v bovine serum albumuin) per well overnight at 4° C. The blocked MSD plate was then washed 3 times with wash buffer (PBS, pH 7.4 and 0.05% v/v Tween-20) using a plate washer (BioTek). Following washing, biotinylated human or cynomolgus monkey soluble LOX-1 protein (25 pM, 15 μL per well) was immobilized on the surface by incubation at 22° C. for one hour with constant shaking (600 rpm). The plate was then washed 3 times as described earlier. In some experiments, non-biotinylated soluble human LOX-1 protein was used (R&D systems, catalog no. 1798-LX-050) was used; in this case the LOX-1 protein was immobilized by overnight incubation at 1 nM concentration in a standard MSD plate (MSD, catalog no. L21XA). The equilibrium binding reactions (15 μL per well) were then applied to the MSD plate with immobilized LOX-1 and incubated for 30 min. The unbound material was removed by washing the plate, and the captured antibody was detected by adding 15 μL per well of a 1:500 dilution of Sulfa-tagged goat anti-human IgG (Mesa Scale Discovery, catalog no. R3AJ-1). The plate was then incubated for one hour with constant shaking (600 rpm). The plate was washed 3 times, and then […] 1×MSD read buffer T(Meso Scale Discovery, catalog no. R92TC-2) was added and the plate was developed using a Sector Imager 6000 (Mesa Scale Discovery).

For assay [6], the target named is T2, APP-Avi-soluble cynomolgus monkey LOX-1 …. The experiment in a line: solution equilibrium titration (SET), MSD read-out. As for the experimental part: as §1, §2

T2 sequence (chain, as listed by the source): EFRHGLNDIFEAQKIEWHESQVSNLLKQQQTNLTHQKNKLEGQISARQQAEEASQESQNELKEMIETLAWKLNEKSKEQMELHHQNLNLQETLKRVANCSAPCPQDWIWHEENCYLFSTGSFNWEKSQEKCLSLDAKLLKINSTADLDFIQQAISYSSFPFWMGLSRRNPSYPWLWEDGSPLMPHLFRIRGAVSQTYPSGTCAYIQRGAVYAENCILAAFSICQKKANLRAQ

B1: FF5 (antibody, human IgG1, kappa, L234A L235A, V domains shown)
VH: QVQLVQSGAEVKKPGASVKVSCKASGYTFTDYEVHWVRQAPGQGLEWMGAIHPGSGGAAYVQKFQGRVTMTRDTSISTAYMELSRLRSDDTAVYYCARWLPMDYWGQGTLVTVSS
VL: DIQMTQSPSSVSASVGDRVTITCRASQGINNWLVWYQQKPGKAPKLLLYAASRLESGVPSRFSGSGSGTDYTLTISSLQPEDIATYYCQQYLITPYTFGQGTKLEIKR
notes: Humaneered variant of E2E10, tested as full human IgG; Biotinylated for the neutrophil assay; also called LLG787; LLG787 (FF5)
In assay [1], B1 had an EC50 of 0.08 µg/mL. In addition, the “Reactive oxygen species (ROS) generation in huLOX-1/HEK293 cells (IC50, nM)” value (“Reactive oxygen species (ROS) generation” for short) in assay [2] is 4.8 nM. In addition, in assay [3], the Kd came out at 0.035 nM, the koff was 4.8e-05 s⁻¹ and the kon turned out to be 1.4e+06 M⁻¹ s⁻¹. For the same molecule, the IC50 in assay [4] came out at 4.1 nM. In addition, in assay [5], the Kd is 0.0008 nM. Besides, the Kd in assay [6] amounted to 0.0006 nM.

B2: FF4 (antibody, human IgG1, kappa, L234A L235A, V domains shown)
VH: QVQLVQSGAEVKKPGASVKVSCKASGYTFTDYEVHWVRQAPGQGLEWMGAIHPGSGGAAYVQKFQGRVTMTRDTSISTAYMELSRLRSDDTAVYYCARWLPMDYWGQGTLVTVSS
VL: DIQMTQSPSSVSASVGDRVTITCRASQGITNWLAWYQQKPGKAPKLLIYAASILESGVPSRFSGSGSGTDYTLTISSLQPEDIATYYCQQYLITPYTFGQGTKLEIKR
notes: Humaneered variant of E2E10, tested as full human IgG; the text and claims pair heavy chain 56 with light chain 66; Biotinylated for the neutrophil assay; also called LLG786; LLG786 (FF4)
In assay [1], B2 came in with an EC50 of 0.23 µg/mL. Moreover, the “Reactive oxygen species (ROS) generation” value in assay [2] amounted to 5.3 nM. For the same molecule, in assay [3], the Kd was determined as 0.001 nM, the koff was 2.6e-06 s⁻¹ and the kon is 2.1e+06 M⁻¹ s⁻¹. This molecule displayed an IC50 in assay [4] of 5 nM. Besides, the Kd in assay [5] turned out to be 0.0007 nM. In assay [6], the Kd is 0.0007 nM.

B3: FF1 (antibody, human IgG1, kappa, L234A L235A, V domains shown)
VH: QVQLVQSGAEVKKPGASVKVSCKASGYTFTDYEVHWVRQAPGQGLEWMGAIHPGSGGAAYVQKFQGRVTMTRDTSTSTAYMELSSLRSDDTAVYYCARWLPMDYWGQGTLVTVSS
VL: DIQMTQSPSSVSASVGDRVTITCRASQGINNWLVWYQQKPGKAPKLLIYAASSLQSGVPSRFSGSGSGADYTLTISSLQPEDFATYYCQQYLITPYTFGQGTKLEIKR
notes: Humaneered variant of E2E10, tested as full human IgG (captured or detected with anti-human IgG); Biotinylated for the neutrophil assay; also called LLG783; LLG783 (FF1)
B3: in assay [1], the EC50 was found to be 0.15 µg/mL. The “Reactive oxygen species (ROS) generation” value in assay [2] worked out at 6 nM. Besides, the Kd in assay [3] worked out at 0.012 nM; in assay [5] it was 0.0031 nM; in assay [6], 0.0018 nM. Further, the koff in assay [3] stood at 1.3e-05 s⁻¹. Moreover, the kon in assay [3] worked out at 1.1e+06 M⁻¹ s⁻¹. In addition, the IC50 in assay [4] worked out at 5.5 nM.

B4: FF3 (antibody, human IgG1, kappa, L234A L235A, V domains shown)
VH: QVQLVQSGAEVKKPGASVKVSCKASGYTFTDYEVHWVRQAPGQGLEWMGAIHPGSGGAAYVQKFQGRVTMTRDTSISTAYMELSRLRSDDTAVYYCARWLPMDYWGQGTLVTVSS
VL: DIQMTQSPSSVSASVGDRVTITCRASQGINNWLVWYQQKPGKAPKLLIYAASSLQSGVPSRFSGSGSGADYTLTISSLQPEDFATYYCQQYLITPYTFGQGTKLEIKR
notes: Humaneered variant of E2E10, tested as full human IgG; Biotinylated for the neutrophil assay; also called LLG785; LLG785 (FF3)
Take B4: the response in assay [1] was half-maximal at 0.13 µg/mL (EC50). Besides, the “Reactive oxygen species (ROS) generation” value in assay [2] was 7.4 nM. Besides, in assay [3], the Kd came to 0.023 nM, the koff amounted to 1.7e-05 s⁻¹ and the kon was found to be 770000 M⁻¹ s⁻¹. This molecule gave an IC50 in assay [4] of 3.3 nM. For the same molecule, in assay [5], the Kd stood at 0.0023 nM. In addition, the Kd in assay [6] came to 0.0034 nM.

B5: FF6 (antibody, human IgG1, kappa, L234A L235A, V domains shown)
VH: QVQLVQSGAEVKKPGASVKVSCKASGYTFTDYEVHWVRQAPGQGLEWMGAIHPGSGGAAYVQKFQGRVTMTRDTSISTAYMELSRLRSDDTAVYYCARWLPIDYWGQGTLVTVSS
VL: DIQMTQSPSSVSASVGDRVTITCRASQGINNWLVWYQQKPGKAPKLLLYAASRLESGVPSRFSGSGSGTDYTLTISSLQPEDIATYYCQQYLITPYTFGQGTKLEIKR
notes: Humaneered variant of E2E10, tested as full human IgG; Biotinylated for the neutrophil assay; also called LLG788; LLG788 (FF6)
In assay [1], B5 gave an EC50 of 0.28 µg/mL. Moreover, in assay [2], the “Reactive oxygen species (ROS) generation” value turned out to be 7.9 nM. Moreover, in assay [3], the Kd was determined as 0.053 nM, the koff came to 5e-05 s⁻¹ and the kon was 950000 M⁻¹ s⁻¹. Further, the IC50 in assay [4] was found to be 5.9 nM. The Kd in assay [5] was determined as 0.002 nM. Also, the Kd in assay [6] amounted to 0.0016 nM.

One may read the EC50 as the concentration at which the effect is half-maximal. Usually koff stands for a measure of how fast the partners let go of each other. The kon is the second-order rate constant of association. As usually defined, the IC50 is the point on the concentration scale where inhibition reaches its midpoint.
